Assay results from the nanobody polyreactivity screen of Harvey et al. (2022).

Test: yeast display, Sf9 membrane polyspecificity reagent, FACS + sequencing; frameworks hold sequencing errors
In short: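 A nanobody's polyreactivity label depends on the gate it was sorted from. Yeast display cells were stained with 10% biotinylated, detergent-solubilized Sf9 membrane reagent for 1 hour at 4 °C, enriched on streptavidin microbeads and sorted by FACS. The low and high (top ~1%) gates were set on anti-HA fluorescence for expression and streptavidin fluorescence for reagent binding.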

Sequence | polyreactivity (PSR sort gate)
QVQLVESGGGLVQAGGSLRLSCAASGRILQWYTMGWYRQAPGKERELVAAISGGGGRTYYADSVKGRFTNSRDIAKNTVYLQMNSLKPEDTAVYYCAKRGTGVYRVDYGYWGQGTQVTVSS | high polyreactivity
QVQLVESGGGLVQAGGSLRLSCAASGRILRFYAMGWYRQAPGKERELVATISRSGGSTYYAESVKGRVTISRDNAKNTVDLQMNSLKPEDTAVDYCNAKFKGVSYKMDYWGQGTQVTVSS | high polyreactivity
QVQLVESGGGLVQAGGSLRLSCAASGRILRGNAMGWYRQAPGKEREFFAAIRRSGGTSYYADSVKGRFTISRDNAKNTVYLQMNSLKPEDTAVYYCAATKYQTSGDRGYEHWGQGTQVTVSS | low polyreactivity
QVQLVESGGGLVQAGGSLRLSCAASGRILRQYAMGWYRQAPGKESELVAAISRSGASTFYADSVKGRFTISRDNAKNTVYLQMNSLKPEDTAVYYCAAEHHAFTWAAINYGSWGQGTQVTVSS | high polyreactivity
QVQLVESGGGLVQAGGSLRLSCAASGRILRSYAMGWYRPAPGKERELVAAISWRGGSTYYADSVKGRFTISRDNAKNTVYLQMNSLKPEDTAVYYCAKRSYYPARYDYWGQGTQVTVSS | high polyreactivity
QVQLVESGGGLVQAGGSLRLSCAASGRILRYNAMGWYRQAPGKERELVASISGNGGSTYYADSVKGRFTISRDNAKYTVYLQMNSLKPEDTAVYYWGQGTQVTVSS | low polyreactivity
QVQLVESGGGLVQAGGSLRLSCAASGRILSRYAMGWYRQAPGKERELVAAINKSGGSTYYADSVKGRFTISRDNAKNTVYLQMNSLKPEDTAVFYCNAVYYWYKGDYWGQGTQVTVSS | high polyreactivity
QVQLVESGGGLVQAGGSLRLSCAASGRILSRYVMGWYRQAPGKERELVAAISGRATSTYYADSVKGRFTISRDNAKNTVYLQMNSLKPEDTAVYYCATGYKTYAVTLYDYWGQGTQVTVSS | high polyreactivity
QVQLVESGGGLVQAGGSLRLSCAASGRILSYYAMGWYRQAPGKERELVAVIRRGASTYADSVKGRFTISRDNAKNTVYLQMNSLKPEDTAVYYCNAERVVGLSATKYGYWGQGTQVTVSS | low polyreactivity
QVQLVESGGGLVQAGGSLRLSCAASGRILTFYGMGWYRQAPGKERELVAAISNGGSTYYADSVKGRFTSSRDNAKNTVYLQMNSLKPEDTAVYYCAKRILTAPRRNSGYDYWGPGTQVTVSS | low polyreactivity
QVQLVESGGGLVQAGGSLRLSCAASGRILTGYAMGLYRQAPGKEREFVASITGSGAITNYADSVKGRFTITRDNAKNTVYLQMNSLKPEDTAVYYCARGYGWWLGYSSRYDYWGQGTQVTVSS | high polyreactivity
QVQLVESGGGLVQAGGSLRLSCAASGRILTKYAMGWYRQAPGKERELVAAISDSGTGTYYADSVKGRFTISRDNAKNTVYLQMNSLKPEDTAVYYCHAQTRRTRTYHGHKYGYWGQGTQVTVSW | high polyreactivity
QVQLVESGGGLVQAGGSLRLSCAASGRILTSNAMGWYRQAPGKERELVAAISWSGGSTYYADSVKGRFTISRDNAKNTVYLQMNSLKPEDTAVYYCNADDTPVPSIRFDYWGQGTQVTVSS | low polyreactivity
QVQLVESGGGLVQAGGSLRLSCAASGRILTSYARGWYRQAPGKVRELVAAISYVCGSTDYADSVKGRFTISRDNAKNTVYLQMNSLKPEDTAVYYCAAKVRYYLSLRGSTTRRDDYYWGQGTQVTVSS | low polyreactivity
QVQLVESGGGLVQAGGSLRLSCAASGRILTYNAMGWYRQAPGKERELVATISARGSRTYYADSVKGRFTISRDNAKNTVYLQMNSLKPEDTAVYYCNAAVGYYSYSYYTKVGVDYWGQGTQVTVSS | high polyreactivity
QVQLVESGGGLVQAGGSLRLSCAASGRILVFYAMGGYRQAPGIERELVAAISKSVRPTYYADSVKGRFTISRDNAQNTVYLQMNSLKPEDTAVYYCNTRSASDLWPQYGYWGQGTQVTVSS | low polyreactivity
QVQLVESGGGLVQAGGSLRLSCAASGRILWSYPMGWYRQAPGKEREFVATINRSGGNTHYADSVKGRFTISRDNAKNTVYLQMYSLKPEDTAVYYCAALNLVPYGYQGLRYYYWGQGTQVTVSS | high polyreactivity
QVQLVESGGGLVQAGGSLRLSCAASGRILYAYTMGWYRQAPGKERELVATISRSGGNTYYADSVKGRFTISRDNAKNTVYLQMNSLKPEDTAVYYCAVGKYGTQRVKLYQYRYNYWGQGTQVTVSS | high polyreactivity
QVQLVESGGGLVQAGGSLRLSCAASGRILYGNAMGWYRQAPGKERELVAAIDTSGGSTYYADSVKGRFTISRDNAKNTVYLQMNSLKPEDTAVYYCAVRAYREFLPIVYKWWWERDHWGQGTQVTVSS | low polyreactivity
QVQLVESGGGLVQAGGSLRLSCAASGRILYGYAMGWYRQAPGKERELVASITWSGGSTYADSVKGRFTISRDNAKNTVYLQMNSLKPEDTAVYYCATRRGPKWQWLTYGYWGQGTQVTVSS | low polyreactivity
QVQLVESGGGLVQAGGSLRLSCAASGRILYHYAMGWYRQAPGKERELVAAITFSGDTTYYADSVKGRFTISRDNAKNTVYLQMNSLKPEDTAVYYCAADDYYLGYEYWGQGTQVTVSS | high polyreactivity
QVQLVESGGGLVQAGGSLRLSCAASGRILYRNAMGWYRQATGKERELVAAITTRGTSTYYADSVKGRFTISRDNAKNTVYLQMNSLKPEDTSVYYCAADSWFSYRGPLYYWGQGTKVTVSS | high polyreactivity

Sequence | polyreactivity (PSR sort gate)
QVQLVESGGGLVQAGGSLRLSCAASGRILYRYAMGWYRQAPGKERELVAAITWRGGTTYYADSVKGRFTISRDNAKNTVYLQMNSLKPEYTAVYYCNADWWRTLESDFWGQGTQVTVSS | low polyreactivity
QVQLVESGGGLVQAGGSLRLSCAASGRILYSYAMGWYRQAPGKEREFVAAISRSGARTYYADYVKGRFTISRDNAKNTVYLQMNSLKPEDTAVYYCAADDFSTVEYDYWGQGTQVTVSS | low polyreactivity
QVQLVESGGGLVQAGGSLRLSCAASGRILYTYAMGWYRQAPGKERELVATISSGGGTNYADSVKGRFTISRDNAKNTVYLQMNSLKPEDSAVYYCAARYGYSRGPYYRSDYWGQGTQVTVSS | high polyreactivity
QVQLVESGGGLVQAGGSLRLSCAASGRILYYNVMVWYRQAPGKERELVASNTSVVSTNYADSVKGRFTISRDNAKNTVYLHMNSLKPEDTAVYYCAARYFSGSFSDEIWGMDYWGQGTQVTVSS | high polyreactivity
QVQLVESGGGLVQAGGSLRLSCAASGRIRFYARGWYRQAPGKEREFVASITRSGGSTYYADSVKGRFTISRDNAKYTVYLQMNSLKPEDTAVYYCAADDYFHDDYWGQGTQVTVSS | high polyreactivity
QVQLVESGGGLVQAGGSLRLSCAASGRIRNAMGWYRQAPGKERELVAGITWSGGRTYYADSVKGRFTISRDNAKYTVYLQMNSLKPEDTAVYYCAAATPYRYNYWGQGTQVTVSS | high polyreactivity
QVQLVESGGGLVQAGGSLRLSCAASGRIRVQNDMGWYRQAPGKERELVAAIRSDGSPSYSDSVKGRFTISRDNAKNTVYLQMNSLKPEDTAVYYCAARIDWTGGEYDYWGQGTQVTVSS | low polyreactivity
QVQLVESGGGLVQAGGSLRLSCAASGRISAYNAMGWYRQAPGKERELVAGISTRTGSTYYADSVKGRFTISRDNAKNTVYLQMNSLKPEDTAVYYGAAYFWGVYFFGMDYWGQGTQVTVSS | low polyreactivity
QVQLVESGGGLVQAGGSLRLSCAASGRISDVYVMGWYRQAPGKERELVAAITWSGGDTYYADSVKGRFTISRDNAKNTVYLQMNSLNPEDTAVYYCNADTGKWGGNGWYEFDYWGQGTQVTVSS | low polyreactivity
QVQLVESGGGLVQAGGSLRLSCAASGRISFINAMGWYRQAPGKEREFVAGITTDGGSTYYADSVKGRFTISRDNAKNTVYLQMNSLKPEDTAVYYCAAEGSVWYVYWGDIYDYWGQGTQVTVSS | low polyreactivity
QVQLVESGGGLVQAGGSLRLSCAASGRISLSNAMGWYRQAPGKEREFVAAITKRSDRTYYADSVKGRFTISRDNAKNTVYLQMNSLKPEDRAVYYCAAKPLFGTRDDYWGQGTQVTVSS | low polyreactivity
QVQLVESGGGLVQAGGSLRLSCAASGRISLSNAMGWYRQAPGKEREFVAAITKRSDRTYYADSVKGRFTISRDNAKNTVYLQMNSLKPEDTAVYYCAAKPLFGTRDEYWGQGTQVTVSS | low polyreactivity
QVQLVESGGGLVQAGGSLRLSCAASGRISPNNAMGWYIPAPGKERELVAAITASGGTTYYADSVKGRFTISRDNAKYTVYLQMNSLKPEDSAVYYCAAAVWYRGWYRYDYWGQGTQVTVSS | low polyreactivity
QVQLVESGGGLVQAGGSLRLSCAASGRISQGYAMGWYRQAPGKERELVPGISRSGGSTYYADSVKGRFTISPDNAKNTVYLQMHSLKPEDTAVYYCAAQSWYGFPNYYWGQGSQVTVSS | high polyreactivity
QVQLVESGGGLVQAGGSLRLSCAASGRISQSNAMGWYRQAPGKERELVAAISWRGGSTYYADSVKGRFTISRDNAKNTVYLQMNSLKPEDTAVYYCAVRGKYDRHYYWGQGTQVTVSS | high polyreactivity
QVQLVESGGGLVQAGGSLRLSCAASGRISRLNAMGWYRQAPGKERELVATISGRGGGTYYADSVKGRFTISRDNAKNTVYLQMNSLKPEDTAVYYCNRRWFTRYDYWGQGTQVTVSS | high polyreactivity
QVQLVESGGGLVQAGGSLRLSCAASGRISRTNAMGWYRQAPGKERELVATITRGGNTNYADSVKGRFTISRDNAKNTVYLQMNSLKPEDTAVYYCAALGRYLRTYRGYVWQFDSWGQGTQVTVSS | high polyreactivity
QVQLVESGGGLVQAGGSLRLSCAASGRISSYYAMGWYRQAPGKEREFVAAITRSSGSTYYADSVKGRFTISRDNAKNTVYLQMNSLKPEDTAVYYCAADYYWTTFSRFDYWGQGTQVTVSS | low polyreactivity
QVQLVESGGGLVQAGGSLRLSCAASGRISVNYAMGWYRQAPGKERELVAGITSRGGSTYYADSVKGRFTISRDNAKNTVYLQMNSLKPEDTAVYYCAARWGGLWYYYWGQGTQVTVSS | high polyreactivity
QVQLVESGGGLVQAGGSLRLSCAASGRISVYYAMGWYRQGPGKERELVAAISWRGSTYYADSVKGRFTISRDYAKNTVYIQMNSQKPEDTAVYNSAARSTGYYGRFYYWGQGTQVTVSS | high polyreactivity
QVQLVESGGGLVQAGGSLRLSCAASGRITYYAMGWYRQAPGKERELVAVISWSGSSTNYADSVKGRFTISRDNAKNTVYLQMNSLKPEDTAVYFCAAENAVTGTDGEYYYWGQGTQVTVSS | high polyreactivity
